Assay results reported in paper PMC2518520.

Experiments:
[1] = biological target: heterotrimeric Gq (Gαqβ1γ2) (UniProt P21279); test: global least-squares fit of a kinetic model to steady-state GTPase rates; GTP-bound Gq species; purified proteins in unilamellar phospholipid vesicles; constants calculated from fitted rate constants (log average of 41 fits); protein concentrations counted on the bilayer volume, so association constants are about 13,000-fold higher than on the aqueous volume
[2] = biological target: complex of agonist-bound m1 muscarinic cholinergic receptor with heterotrimeric Gq (Gαqβ1γ2) (UniProt P11229); test: global least-squares fit of a kinetic model to steady-state GTPase rates; GDP-bound Gq species; purified proteins in unilamellar phospholipid vesicles; constants calculated from fitted rate constants (log average of 41 fits); protein concentrations counted on the bilayer volume, so association constants are about 13,000-fold higher than on the aqueous volume
[3] = biological target: heterotrimeric Gq (Gαqβ1γ2) (UniProt P21279); test: as above
[4] = biological target: complex of agonist-bound m1 muscarinic cholinergic receptor with heterotrimeric Gq (Gαqβ1γ2) (UniProt P11229); test: global least-squares fit of a kinetic model to steady-state GTPase rates; GTP-bound Gq species; purified proteins in unilamellar phospholipid vesicles; constants calculated from fitted rate constants (log average of 41 fits); protein concentrations counted on the bilayer volume, so association constants are about 13,000-fold higher than on the aqueous volume
[5] = biological target: complex of agonist-bound m1 muscarinic cholinergic receptor with heterotrimeric Gq (Gαqβ1γ2) (UniProt P11229); test: global least-squares fit of a kinetic model to steady-state GTPase rates; nucleotide-free Gq species; purified proteins in unilamellar phospholipid vesicles; constants calculated from fitted rate constants (log average of 41 fits); protein concentrations counted on the bilayer volume, so association constants are about 13,000-fold higher than on the aqueous volume
[6] = biological target: heterotrimeric Gq (Gαqβ1γ2) (UniProt P21279); test: as above

m1 muscarinic cholinergic receptor, sequence (P11229 whole entry): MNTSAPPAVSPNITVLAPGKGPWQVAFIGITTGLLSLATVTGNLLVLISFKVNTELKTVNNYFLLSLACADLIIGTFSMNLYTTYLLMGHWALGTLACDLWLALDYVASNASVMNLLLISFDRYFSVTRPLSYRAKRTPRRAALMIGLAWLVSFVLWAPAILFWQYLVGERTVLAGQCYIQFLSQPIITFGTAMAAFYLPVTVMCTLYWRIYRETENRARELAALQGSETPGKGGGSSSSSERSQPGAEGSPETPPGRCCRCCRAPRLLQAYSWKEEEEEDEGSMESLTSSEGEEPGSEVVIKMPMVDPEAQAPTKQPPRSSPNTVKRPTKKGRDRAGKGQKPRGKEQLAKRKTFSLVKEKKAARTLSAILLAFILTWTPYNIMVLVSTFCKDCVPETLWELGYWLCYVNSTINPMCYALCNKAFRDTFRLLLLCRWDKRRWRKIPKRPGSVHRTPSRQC

Substance | fold faster dissociation with GTP bound [1] [fold] | Ka [2] [M⁻¹] | fold faster dissociation than from Gq-GDP without receptor [2] [fold] | t1/2 of dissociation [2] [s] | Ka [3] [M⁻¹] | Ka [4] [M⁻¹] | Ka [1] [M⁻¹] | Ka [5] [M⁻¹] | Ka [6] [M⁻¹]
m1 muscarinic cholinergic receptor (from UniProt P11229 1-460) | 70 | – | – | – | – | – | – | – | –
phospholipase C-β1 (from UniProt P10687 1-1216) (enzyme) | – | 2300 | 90 | 0.3 | 280000 | 390000 | 9.6e+06 | 560000 | 370000
